According to publication PMC6817822:

Molecular target: PR55α regulatory subunit of PP2A (human (endogenous in CD18/HPAF)) (UniProt P63151)
Experiment: co-IP; PR55α immunoprecipitated with anti-PR55α (2G9) from CD18/HPAF cells stably transduced with empty vector, Flag-YAP or Flag-YAP(5SA); immunoblotted with anti-PR55α (100C1) and anti-Flag (M2)

Chain of UniProt P63151 (P63151 whole entry): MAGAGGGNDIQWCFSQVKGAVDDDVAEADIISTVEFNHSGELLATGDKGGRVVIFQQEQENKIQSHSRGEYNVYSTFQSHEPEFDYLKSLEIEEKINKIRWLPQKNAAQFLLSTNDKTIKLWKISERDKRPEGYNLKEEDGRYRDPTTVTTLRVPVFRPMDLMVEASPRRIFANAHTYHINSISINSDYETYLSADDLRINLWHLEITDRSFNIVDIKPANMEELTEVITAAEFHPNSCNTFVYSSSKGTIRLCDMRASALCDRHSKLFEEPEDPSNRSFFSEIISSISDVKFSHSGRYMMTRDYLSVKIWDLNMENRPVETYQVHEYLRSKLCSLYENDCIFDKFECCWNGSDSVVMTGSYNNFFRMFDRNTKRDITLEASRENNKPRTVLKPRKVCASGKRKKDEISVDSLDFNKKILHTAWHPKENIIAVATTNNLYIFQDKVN

fold of the level in the anti-PR55α immunoprecipitates against Flag-YAP(5SA): 28 fold
Substance: Flag-YAP(WT) (natural protein)
